Assay [1] concerns the target HLA-A*02:06. The assay is described as follows: IEDB peptide-MHC binding, purified MHC/competitive/radioactivity; filed as Kd, often an IC50 or EC50 that approximates it; ≥ and ≤ were set here for values at or beyond the usual limits of such assays.
Assay [2] deals with HLA-A*02:17. The assay is described as above.
The target in assay [3] is HLA-A*02:01. The assay is described as above.
The target in assay [4] is HLA-B*15:03. Described as above.
Assay [5] has as its target HLA-A*02:03. Described as above. As to conditions: source organism: Dengue virus 3 Martinique/1243/1999.
Assay [6] deals with HLA-B*08:01. The description is as above.
The target of assay [7] is HLA-B*15:01. Described as above. As to conditions: source organism: Vaccinia virus WR.
For assay [8], the target named is HLA-A*30:01. The assay is described as above. As to conditions: source organism: Vaccinia virus WR.
For assay [9], the target named is HLA-A*32:01. The assay is described as above.
In assay [10] the target is HLA-B*27:05. Nature of the assay: IEDB peptide-MHC binding, purified MHC/direct/fluorescence; filed as Kd, often an IC50 or EC50 that approximates it; ≥ and ≤ were set here for values at or beyond the usual limits of such assays.
The target of assay [11] is HLA-B*48:01. Described as above. As to conditions: source organism: Escherichia coli O157:H7.
Assay [12] addresses HLA-B*40:01. Nature of the assay: IEDB peptide-MHC binding, purified MHC/competitive/radioactivity; filed as Kd, often an IC50 or EC50 that approximates it; ≥ and ≤ were set here for values at or beyond the usual limits of such assays.
In assay [13] the target is HLA-B*44:03. The description is as above.
In assay [14] the target is HLA-B*44:02. Described as above.
The target of assay [15] is HLA-B*08:01. Nature of the assay: IEDB peptide-MHC binding, purified MHC/direct/fluorescence; filed as Kd, often an IC50 or EC50 that approximates it; ≥ and ≤ were set here for values at or beyond the usual limits of such assays.
Assay [16] deals with HLA-B*15:01. The assay is described as above. As to conditions: source organism: Yersinia pestis Nepal516.
Assay [17] concerns the target HLA-A*24:03. Described as above. As to conditions: source organism: Yersinia pestis Nepal516.
Assay [18] concerns the target HLA-A*03:01. The description is as above. As to conditions: source organism: Yersinia pestis Nepal516.
Assay [19] has as its target HLA-B*40:01. Described as above. As to conditions: source organism: Yersinia pestis Nepal516.
For assay [20], the target named is HLA-A*11:01. The assay is described as above. As to conditions: source organism: Yersinia pestis Nepal516.
Assay [21] deals with HLA-A*01:01. Described as above. As to conditions: source organism: Yersinia pestis.
The target of assay [22] is HLA-A*31:01. Described as above. As to conditions: source organism: Yersinia pestis Nepal516.
Assay [23] concerns the target HLA-A*26:01. Described as above. As to conditions: source organism: Yersinia pestis Nepal516.
Assay [24] has as its target HLA-B*07:02. The description is as above. As to conditions: source organism: Yersinia pestis Nepal516.
Assay [25] has as its target HLA-B*44:02. Described as above. As to conditions: source organism: Yersinia pestis Nepal516.
The target in assay [26] is HLA-A*69:01. The description is as above. As to conditions: source organism: Yersinia pestis Nepal516.
For assay [27], the target named is HLA-A*02:01. The description is as above. As to conditions: source organism: Yersinia pestis Nepal516.
Assay [28] deals with HLA-B*58:01. The assay is described as above.
In assay [29] the target is HLA-B*08:02. The assay is described as above.
Assay [30] has as its target HLA-B*57:01. Described as above. As to conditions: source organism: Vibrio vulnificus.
The target of assay [31] is HLA-B*46:01. Nature of the assay: IEDB peptide-MHC binding, purified MHC/competitive/fluorescence; filed as Kd, often an IC50 or EC50 that approximates it; ≥ and ≤ were set here for values at or beyond the usual limits of such assays.
The target in assay [32] is HLA-A*02:12. The assay is described as follows: IEDB peptide-MHC binding, purified MHC/direct/fluorescence; filed as Kd, often an IC50 or EC50 that approximates it; ≥ and ≤ were set here for values at or beyond the usual limits of such assays. As to conditions: source organism: dengue virus type 3.
Assay [33] concerns the target HLA-A*23:01. The assay is described as follows: IEDB peptide-MHC binding, purified MHC/competitive/radioactivity; filed as Kd, often an IC50 or EC50 that approximates it; ≥ and ≤ were set here for values at or beyond the usual limits of such assays. As to conditions: source organism: Dengue virus 2 Jamaica/1409/1983.
Where [34] appears, read: source organism: Dengue virus 2 Jamaica/1409/1983.
[35] abbreviates: source organism: Vaccinia virus WR.
[36] abbreviates: source organism: Dengue virus 3 Martinique/1243/1999.
Setting [37] is: source organism: Dengue virus 3 Sri Lanka/1266/2000.
Where [38] appears, read: source organism: Vaccinia virus Copenhagen.
Setting [39] is: source organism: Dengue virus 4 Philippines/H241/1956.
[40] abbreviates: source organism: Dengue virus 1 Brazil/97-11/1997.
Setting [41] is: source organism: Yersinia pestis Nepal516.
[42] abbreviates: source organism: Listeria monocytogenes serotype 4b str. H7858.
Setting [43] is: source organism: Dengue virus 1 Singapore/S275/1990.

pKd: −log10 of the molar value.

Consider LQMEDKAWLV, for which the negative-log Kd (pKd) in assay [1] (setting [34]) was 8.57; in assay [2] (setting [34]), 6.92; in [3] (setting [34]) it was 8.44.

In the case of ESVKFGNSI, the pKd in assay [4] (setting [35]) was 6.99.

For ALFSGVSWV, the values for the pKd in assay [1] (setting [36]), in assay [5] and in assay [2] (setting [37]) were 8.71, 9.44 and 6.34, respectively.

Turning to MVRLPYKDA, the negative logarithm of the Kd (pKd) in [6] (setting [35]) is at most 4.11; in [7], at most 4.29; in assay [8] it was 9.12; in assay [4] (setting [35]), at most 4.52; in assay [9] (setting [35]), at most 4.11.

Regarding IMTSGVIPF, the pKd in assay [4] (setting [38]) was 9.65.

Consider LILGAQALPV, for which the negative logarithm of the Kd (pKd) in assay [1] (setting [39]) is 7.74; in [2] (setting [39]), 6.32; in assay [3] (setting [39]), 7.26.

For the sequence VQHNIKHSF, in [4] (setting [35]), the negative logarithm of the Kd (pKd) is 9.69.

For the sequence EQKLRPNSF, the pKd in assay [6] (setting [35]) is 5.21; in assay [7] it was 5.05; in [8], 6.00; in assay [4] (setting [35]) it was 5.96; in assay [9] (setting [35]), 4.91.

As to SIILEFFLMV, the pKd is 7.80 in assay [1] (setting [40]), 6.93 in assay [2] (setting [39]) and 8.01 in [3] (setting [39]).

For ITNTEINSF, the pKd in [4] (setting [35]) and in assay [9] (setting [35]) was 6.38 in each case.

Consider IIIPLSVSI, for which the negative logarithm of the Kd (pKd) in [6] (setting [35]) is at most 4.51; in assay [7], 6.53; in [8], 5.89; in [4] (setting [35]), 5.91; in assay [9] (setting [35]), 7.16.

On to RRHPMRLRK, for which the negative logarithm of the Kd (pKd) in assay [10] (source organism: Escherichia coli O157:H7) is 7.61; in [11], at most 4.70.

As for SNINDFNIF, in assay [4] (setting [35]), the negative logarithm of the Kd (pKd) was 6.30.

With ISSRESVSF, the pKd in [4] (setting [38]) is 7.92.

As for EKTQYTNDF, the negative-log Kd (pKd) in assay [6] (setting [35]) is at most 4.57; in assay [7], 4.90; in assay [8], 5.87; in assay [4] (setting [35]), 6.08; in assay [9] (setting [35]), at most 4.11.

For IKVTAASPM, the negative-log Kd (pKd) in assay [4] (setting [35]) is 8.56.

Take FLSNCEKQF: the negative logarithm of the Kd (pKd) in [4] (setting [35]) is 7.68.

For the sequence AEMEEALRGL, the pKd in assay [12] (setting [34]) was 7.89; in assay [13] (setting [34]), 7.50; in assay [14] (setting [34]), 7.75.

For the sequence HEMYWVSGV, in [14] (setting [39]), the pKd was 7.29.

In the case of KKMQSYNSV, the pKd in assay [4] (setting [35]) is 8.55.

Turning to KLVIFPSHL, the pKd in assay [4] (setting [35]) was 5.93.

LSEEIGLDL: the negative logarithm of the Kd (pKd) in assay [15] (setting [41]), in assay [16], in [17], in assay [18], in [19] and in [20] was at most 4.70 each time. Further, the negative logarithm of the Kd (pKd) in assay [21] was 5.20; in assay [22] it was at most 4.70; in assay [23], at most 4.70; in assay [10] (setting [41]), at most 4.70; in [24] it was at most 4.70; in assay [25] it was at most 4.70. The negative logarithm of the Kd (pKd) in assay [26], in [27] and in assay [28] (setting [41]) was at most 4.70 throughout.

Consider MEEALKGLPI, for which the pKd in assay [12] (setting [36]) is 7.06; in [13] (setting [36]), 6.69; in assay [14] (setting [36]) it was 6.47.

As for ALFSGVSWVM, the values for the pKd in [2] (setting [37]) and in assay [3] (setting [37]) were 6.16 and 8.14, respectively.

In the case of SEIQLTDYGA, the values for the negative-log Kd (pKd) in assay [12] (setting [40]), in assay [13] (setting [40]) and in [14] (setting [40]) were 6.01, 7.37 and 6.83, respectively.

Turning to HLKRRKEPL, the negative-log Kd (pKd) was 7.80 in assay [15] (setting [42]) and 6.34 in assay [29] (setting [42]).

On to LAFSTRFSF, for which the figures for the pKd in [30], in [28] (source organism: Vibrio vulnificus) and in [31] (source organism: Vibrio vulnificus YJ016) were 6.53, 6.84 and 6.18, respectively.

For TLKRRSWPL, the negative-log Kd (pKd) in assay [32] was 8.40; in [29] (source organism: dengue virus type 3), 7.06; in [6] (setting [36]) it was 8.93.

For AAAWYLWEV, the negative logarithm of the Kd (pKd) in [1] (setting [34]) is 8.47; in [2] (setting [34]) it was 5.85.

As to MLLMLLPTAL, the pKd was 8.27 in assay [1] (setting [40]), 7.11 in assay [2] (setting [43]) and 7.78 in assay [3] (setting [43]).

Turning to FHVRRLLKF, the negative-log Kd (pKd) in assay [4] (setting [38]) is 7.67.

For the sequence FSILFSNNF, the negative-log Kd (pKd) in [4] (setting [35]) is 7.53.

Consider ILGAQALPV, for which the pKd in assay [2] (setting [39]) is 5.59; in assay [3] (setting [39]) it was 7.49.

With TLYAVATTF, the pKd in [9] (setting [34]) was 7.09; in assay [33], 6.87; in assay [31] (source organism: Dengue virus 2 Thailand/NGS-C/1944) it was at most 4.70.

For LKYYYSNSY, the pKd in assay [4] (setting [35]) is 9.62.

In the case of TEPEDIDCW, the pKd in assay [14] (setting [39]) was 5.94.

For CMVICLLSF, the pKd in [4] (setting [38]) was 6.19.

Values taken from the Immune Epitope Database (IEDB).
